# Assay results reported in US20150147274A1 (CANCER RESEARCH TECHNOLOGY, published 2015).
# Positions count from the first letter of the chain named.
# B1: 108_E5 (scFv)
# scFv: QMQLVQSGAEVKKPGAPVKVSCKVSGYTFTDYYMHWVQQAPGKGLEWMGLVDPEDGETIYAEKFQGRVTITADTSTDTAYMELSSLRSEDTAVYYCATDATTPYWGMWIWGQGTLVTVSSLEGGGGSGGGGSGGGASDIQMTQSPSSLSASVGDRVTITCQASQDISNYLNWYQQKPGRAPKVLIYDASNLETGVPSRFSGSGSGTEFTLTISNLRPDDFATYYCQQGDSFPLTFGGGTKVEIK
# notes: not shown: 6xHis/tri-FLAG tags
# B2: 110_B8 (scFv)
# scFv: B1 scFv with W108M, I109L
# notes: as for B1
# B3: 108_F3 (scFv)
# scFv: B1 scFv with W108A, I109K
# notes: as for B1
# B4: 111_C5 (scFv)
# scFv: B1 scFv with G106F, M107P, W108K, I109V
# notes: as for B1
# B5: 109 H2 (scFv)
# scFv: B1 scFv with I109E
# notes: as for B1
# B6: 108_G6 (scFv)
# scFv: B1 scFv with G106F, M107P, W108V, I109W
# notes: as for B1
# B7: 110_B5 (scFv)
# scFv: B1 scFv with W108M, I109S
# notes: as for B1
# B8: 108_F11 (scFv)
# scFv: B1 scFv with A100G, T101S, T102N, P103L, Y104S, G106Q, W108D, I109V
# notes: as for B1
# B9: 109_H5 (scFv)
# scFv: B1 scFv with M107A, W108Q, I109E
# notes: as for B1
# B10: 109_H6 (scFv)
# scFv: B1 scFv with G106F, M107P, W108R, I109T
# notes: as for B1
# B11: 110_B9 (scFv)
# scFv: B1 scFv with G106S, M107P, W108I, I109W
# notes: as for B1
# B12: 108_G5 (scFv)
# scFv: B1 scFv with G106W, W108Q, I109S
# notes: as for B1
# B13: 108_F6 (scFv)
# scFv: B1 scFv with W105C, G106C, M107T, W108I, I109E
# notes: as for B1
# B14: 109_G10 (scFv)
# scFv: B1 scFv with G106F, M107P, W108R, I109V
# notes: as for B1
# B15: 109_G8 (scFv)
# scFv: B1 scFv with W108A, I109T
# notes: as for B1
# B16: 110_B7 (scFv)
# scFv: B1 scFv with A100G, T101L, T102W, P103M, W105Y, W108D, I109V
# notes: as for B1
# B17: 110_A9 (scFv)
# scFv: B1 scFv with W108A, I109G
# notes: as for B1
# B18: 109_H9 (scFv)
# scFv: B1 scFv with W108T, I109K
# notes: as for B1
# B19: 109_H7 (scFv)
# scFv: B1 scFv with G106F, M107P, W108R, I109W
# notes: as for B1
# B20: 109_H3 (scFv)
# scFv: B1 scFv with W108Q, I109Q
# notes: as for B1
# B21: 108_E12 (scFv)
# scFv: B1 scFv with G106L, M107A, W108A, I109E
# notes: as for B1
# B22: 110_B6 (scFv)
# scFv: B1 scFv with A100T, T101D, T102L, P103K, W105Y, W108D, I109V
# notes: as for B1
# B23: 110_A5 (scFv)
# scFv: B1 scFv with G106Y, M107P, W108F, I109V
# notes: as for B1
# B24: 109_G11 (scFv)
# scFv: B1 scFv with G106W, M107T, W108A, I109N
# notes: as for B1
# B25: 110_B3 (scFv)
# scFv: B1 scFv with A100M, T101E, T102L, P103N, W105Y, W108D, I109V
# notes: as for B1
# B26: 108_E7 (scFv)
# scFv: B1 scFv with I109R
# notes: as for B1
# B27: 109_H1 (scFv)
# scFv: B1 scFv with M107V, W108Q, I109K
# notes: as for B1
# B28: 108_E8 (scFv)
# scFv: B1 scFv with G106W, W108Q, I109K
# notes: as for B1
# B29: 108_E10 (scFv)
# scFv: B1 scFv with G106F, M107P, I109V
# notes: as for B1
# B30: 110_A8 (scFv)
# scFv: B1 scFv with G106C, W108A
# notes: as for B1
# B31: 109_G12 (scFv)
# scFv: B1 scFv with W108A, I109A
# notes: as for B1
# B32: 108_F2 (scFv)
# scFv: B1 scFv with W108S, I109S
# notes: as for B1
# B33: 109_H11 (scFv)
# scFv: B1 scFv with W108A, I109Q
# notes: as for B1
# B34: 109_H8 (scFv)
# scFv: B1 scFv with G106F, M107P, W108R, I109S
# notes: as for B1
# B35: 111_C1 (scFv)
# scFv: B1 scFv with G106S, M107P, I109A
# notes: as for B1
# B36: 108_G1 (scFv)
# scFv: B1 scFv with G106F, M107P, W108R, I109M
# notes: as for B1
# B37: 110_A2 (scFv)
# scFv: B1 scFv with W108S, I109T
# notes: as for B1
# B38: 111_C3 (scFv)
# scFv: B1 scFv with W108Q, I109G
# notes: as for B1
# B39: 108_G3 (scFv)
# scFv: B1 scFv with G106A, M107P, I109R
# notes: as for B1
# B40: 111_B12 (scFv)
# scFv: B1 scFv with M107A, W108Q, I109A
# notes: as for B1
# B41: 108_E11 (scFv)
# scFv: B1 scFv with W105C, G106S, M107R, W108T, I109S
# notes: as for B1
# B42: 110_A3 (scFv)
# scFv: B1 scFv with M107V, W108Q, I109V
# notes: as for B1
# Target: T1, MET928 (cMET protein derived from construct 25-928) (human, UniProt P08581 25-928)
# T1 construct: MET ectodomain, residues 1-24 are the leader; produced in Lec 8 cells; background text says the ectodomain is furin-cleaved into alpha (25-307) and beta chains; biotinylated form used in selections; also called MET928 extracellular domain; Met extracellular domain
# T1 sequence (P08581 25-928): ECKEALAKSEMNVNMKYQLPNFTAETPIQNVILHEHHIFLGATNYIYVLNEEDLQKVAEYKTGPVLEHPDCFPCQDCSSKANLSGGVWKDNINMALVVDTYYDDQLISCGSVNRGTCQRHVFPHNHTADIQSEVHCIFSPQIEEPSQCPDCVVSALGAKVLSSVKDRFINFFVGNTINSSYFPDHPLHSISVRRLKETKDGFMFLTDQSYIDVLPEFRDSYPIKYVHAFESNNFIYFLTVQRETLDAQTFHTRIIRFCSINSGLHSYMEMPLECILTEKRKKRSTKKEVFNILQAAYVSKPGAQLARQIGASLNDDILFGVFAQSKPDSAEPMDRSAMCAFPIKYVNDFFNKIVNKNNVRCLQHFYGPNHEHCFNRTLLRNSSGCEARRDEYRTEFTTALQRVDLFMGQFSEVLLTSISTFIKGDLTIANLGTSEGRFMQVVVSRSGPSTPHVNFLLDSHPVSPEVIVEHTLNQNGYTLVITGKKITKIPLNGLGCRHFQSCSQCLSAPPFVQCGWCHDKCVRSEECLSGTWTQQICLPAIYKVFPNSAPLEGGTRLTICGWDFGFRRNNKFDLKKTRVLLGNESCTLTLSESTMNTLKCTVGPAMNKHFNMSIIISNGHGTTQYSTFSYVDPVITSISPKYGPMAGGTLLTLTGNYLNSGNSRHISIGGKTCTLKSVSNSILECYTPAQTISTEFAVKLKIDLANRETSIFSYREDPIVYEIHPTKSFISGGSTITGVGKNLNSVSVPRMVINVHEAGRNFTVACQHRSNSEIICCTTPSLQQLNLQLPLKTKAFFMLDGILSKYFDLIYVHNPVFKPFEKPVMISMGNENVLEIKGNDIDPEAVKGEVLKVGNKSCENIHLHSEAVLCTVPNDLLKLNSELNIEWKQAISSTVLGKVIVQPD
# Test: ELISA, soluble scFv
row,Binder,binding result
1,B1,binds
2,B2,binds
3,B3,binds
4,B4,binds
5,B5,binds
6,B6,binds
7,B7,binds
8,B8,binds
9,B9,binds
10,B10,binds
11,B11,binds
12,B12,binds
13,B13,binds
14,B14,binds
15,B15,binds
16,B16,binds
17,B17,binds
18,B18,binds
19,B19,binds
20,B20,binds
21,B21,binds

row,Binder,binding result
1,B22,binds
2,B23,binds
3,B24,binds
4,B25,binds
5,B26,binds
6,B27,binds
7,B28,binds
8,B29,binds
9,B30,binds
10,B31,binds
11,B32,binds
12,B33,binds
13,B34,binds
14,B35,binds
15,B36,binds
16,B37,binds
17,B38,binds
18,B39,binds
19,B40,binds
20,B41,binds
21,B42,binds
